Assay [1] addresses T1, fusion protein of the extracellular region of human PD-L1 and human IgG1-FC (human, UniProt Q9NZQ7 19-238).
T1 construct: PD-L1 is put first by convention; also called fusion protein PD-L1 (hFC tag)
Briefly: FACS blocking of PD-L1-hFc binding to 293T-h-PD1 cells, hybridoma supernatant.
Protocol: (§1) Each well was then washed twice by adding 400 μl FACS buffer, PE anti-human IgG Fc secondary antibody was added and incubated for 1 hour, after which each well was washed twice by adding 400 μl FACS buffer. Detection was performed.

The target of assay [2] is T2, human PD-L1 on 293T-h-PDL1 cells (human, UniProt Q9NZQ7 19-238). Briefly: FACS, hybridoma culture supernatant on 293T-h-PDL1 cells. (In flow cytometry, cells or beads pass a laser one at a time.)
T2 sequence (Q9NZQ7 19-238): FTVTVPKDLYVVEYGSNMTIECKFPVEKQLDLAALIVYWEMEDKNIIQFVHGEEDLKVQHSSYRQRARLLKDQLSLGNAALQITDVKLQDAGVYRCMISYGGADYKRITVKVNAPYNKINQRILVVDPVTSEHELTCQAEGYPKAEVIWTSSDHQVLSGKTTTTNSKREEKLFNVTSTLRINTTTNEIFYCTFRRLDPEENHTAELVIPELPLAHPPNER
Protocol: 1 ml of flow cytometry buffer was added to each flow cytometry tube and centrifuged at 1200 rpm for 5 minutes. The supernatant was discarded and the washing was repeated three times. At the same time, both control tube 1 (no culture supernatant and secondary antibody below, only the cell suspension was added) and control tube 2 (no culture supernatant, only cell suspension and secondary antibody below were added) were set.
(§2) Then 100 μl of flow cytometry buffer was added to each flow cytometry tube and resuspension was performed. […] Then 1 ml of flow cytometry buffer was added and centrifuged at 1200 rpm for 5 minutes at room temperature, the supernatant was discarded and the washing was repeated three times. 250 μl of flow cytometry buffer was added to each flow cytometry tube again, the pellet was resuspended and mixed. The resulting samples was detected by the machine.
Assay [3] concerns the target T3, extracellular region of human PD-L1 protein (positions 19-238 of SEQ ID NO: 3) (human, UniProt Q9NZQ7 19-238).
T3 construct: also called Human PD-L1-his; antigen PD-L1
The experiment in a line: ForteBio Octet (BLI), antibody immobilized, PD-L1 ECD 6.25-200 nM; culture supernatant.
Protocol: (§3) A 96-well plate was obtained, and 200 μl SD buffer (1×PBS+0.02% Tween20+0.1% BSA) was added to each well, the plate was placed in ForteBio Octet and pre-circulated.

For assay [4], the target named is T3, extracellular region of human PD-L1 …. Briefly: ForteBio Octet (BLI), antibody immobilized, PD-L1 ECD 6.25-200 nM; antibody after purification. (In general: Biolayer interferometry detects binding as a change in optical thickness at a sensor tip.)
Protocol: as §3
The antibody was immobilized and the concentration of the antibody after supernatant purification was 10 μg/ml.
The target is the same in assay [5]. Briefly: ForteBio Octet (BLI), antibody 20 nM, PD-L1 ECD from 30 nM in 3-fold dilutions.
Protocol: The murine antibody, chimeric antibody and humanized antibody of the present invention were dissolved in PBS to obtain 20 nM solutions.
The affinities of the antibody-antigen were determined using the ForteBio Octet as an affinity detection instrument.
In assay [6] the target is T2, human PD-L1 on 293T-h-PDL1 cells. The experiment in a line: FACS, purified antibody on 293T-h-PDL1 cells.
Protocol: as §2
Control tube 1 (no antibody and secondary antibody, only cell suspension was added) and control tube 2 (no antibody, only cell suspension and secondary antibody was added) were set.
Assay [7] has as its target T1, fusion protein of the extracellular …. The experiment in a line: FACS blocking of PD-L1-hFc binding to 293T-h-PD1 cells, purified antibody.
Protocol: as §1

T1 sequence (Q9NZQ7 19-238): as above
T3 sequence (Q9NZQ7 19-238): as above

B1: murine antibody 15G10 (A2) (antibody, V domains shown)
VH: QVQLKQSGPELVKPGASVKTSCKASGYTFTNYVVHWVKQNPGQGLEWIGYVNPNNDGTIFNEKFKDKAILTSDKSSSTAYMELSSLTSEDSAVYYCARSPFAHWGQGTLVTVSA
VL: QIVLTQSPASLTVSLGQRATISCSASESVDFYGTSLMQWFQQKPGQPPKLLVYTASNVDSEVPARFSGSGSGTDFSLNIHPVEEDDIAMYFCHQTRKVPYTFGGGTKLEIK
notes: Mouse hybridoma antibody (subclone 15G10-3), tested as culture supernatant; Only variable domains printed; also called 15G10-3
As a reminder, the IC50 is the concentration that gives 50% inhibition. High values mean weaker potency in that assay, low ones greater potency in that assay. What is called EC50 is the concentration that produces a half-maximal response. Lower therefore signals higher potency in that assay. In assay [1], B1 registered an IC50 of 4 µg/mL. The molecule also showed an EC50 in assay [2] of 1.45 µg/mL.

B2: murine antibody 28B1 (A5), subclone 28B1-2 (antibody, V domains shown)
VH: QVQLKQSGAELVKPGASVMLSCTASAFNIDDTYIHWVKQRPEQGLEWIGRIDPANGNTDYDPECQGKATITTDMSSNTAYLQLSSLTSEDTAVYFCARGLRLPGLVYWGRGTLVTVSA
VL: DIQMTQTTSSLSASLGDRVTISCRASQDISNYLNWYQQKPDGTVKLLIYYTSILYSGVPSRFSGSGSGTDYSLTINTLEEEDIATYFCQQGNTLPWTFGGGTKLEIIR
notes: Mouse hybridoma antibody; Only variable domains printed
Broadly, the Kd is a measure of binding affinity in units of concentration. The koff is a measure of how fast the partners let go of each other. In assay [3], B2 had a dissociation constant Kd of 0.00924 nM and a koff of 6.26e-06 s⁻¹. The molecule also came in with an IC50 in assay [1] of 2.31 µg/mL. Also, in assay [4], the Kd was determined as 0.785 nM and the koff was determined as 0.000785 s⁻¹. The molecule also registered a 50% effective concentration (EC50) in assay [2] of 0.39 µg/mL.

B3: murine antibody 28B1 (A5), subclone 28B1-7 (antibody, V domains shown)
VH: QVQLKQSGAELVKPGASVMLSCTASAFNIDDTYIHWVKQRPEQGLEWIGRIDPANGNTDYDPECQGKATITTDMSSNTAYLQLSSLTSEDTAVYFCARGLRLPGLVYWGRGTLVTVSA
VL: DIQMTQTTSSLSASLGDRVTISCRASQDISNYLNWYQQKPDGTVKLLIYYTSILYSGVPSRFSGSGSGTDYSLTINTLEEEDIATYFCQQGNTLPWTFGGGTKLEIIR
Turning to B3, in assay [3], the Kd was < 0.001 nM and the koff is < 1e-07 s⁻¹. For the same molecule, in assay [4], the Kd came to 0.748 nM and the dissociation rate constant (koff) was determined as 0.000723 s⁻¹.

B4: murine antibody 22B10 (A6) (antibody, V domains shown)
VH: QVQLKQSGAELVKPGASVELSCTASGFNIEDTYLHWVNQRPEQGLEWIGRIDPANGNTYYDPKFQGKATITTDTSSNTAYLQLSRLTSEDTAVYYCARGLRLPGFPYWGQGTLVTVSA
VL: DIQMTQTPSSLSASLGDRVTISCRASQDISNYLSWYQQKPDGTVKLLIYYTSILHSGVPSRFSGSGSGTDYSLAISNLDQEDIATYFCQQGNTLPWTFGGGTKLEIKR
notes: Mouse hybridoma antibody (subclone 22B10-1); Only variable domains printed; also called 22B10-1
As to B4, the figures for the Kd in assay [3] and in assay [4] were 0.0714 nM and 0.528 nM, respectively. Also, the koff in assay [3] stood at 4.43e-05 s⁻¹; in assay [4] it was 0.000481 s⁻¹. In addition, the concentration for half-maximal inhibition (IC50) in assay [1] is 4.31 µg/mL. In assay [2], this molecule yielded an EC50 of 0.517 µg/mL.

B5: humanized antibody 14A7(hz) (antibody, V domains shown)
VH: QVQLVQSGAEVKKPGASVKVSCKASEYTFTNNWIAWVRQAPGQGLEWVGDIHPGGGFTNYNEKFKVRATLTADTSTSTAYMELSSLRSEDTAVYYCAGSKTRDYDAWFAYWGQGTTVTVSS
VL: DIQMTQSPSTLSASVGDRVTITCKSSQSLLYTGNQKNYLAWYQQKPGKAPKLLIYWASTRESGVPSRFSGSGSGTEFTLTISSLQPDDFATYYCQQYYTYRTFGQGTKVEIKR
notes: also called 14A7-4(hz)
For the molecule B5, in assay [5], binding was put at a Kd of 0.884 nM and the koff worked out at 0.000358 s⁻¹. The same molecule registered an EC50 in assay [6] of 0.77 µg/mL. Moreover, in assay [7], the IC50 turned out to be 1.95 µg/mL.

B6: murine antibody 13C9 (A3) (antibody, V domains shown)
VH: QVQLKQSGAGLVKPGASVKLSCKASGYIFTEYIIHWVKQRSGQGLEWIGWFYPGSDNIKYNEKFKDKATLTADKSSSTVYMELSRLTSEDSAVYFCARHETGYFFDYWGQGTTLTVSS
VL: DIVITQSPAIMSASPGEKVTMTCSASSSVSKMNWYQQKSGTSPKRWIYDTSKLASGVPSRFSGSGSGTSYSLTISSMEAEDAATYYCQQWSSNPLTFGSGTKLELKR
notes: Mouse hybridoma antibody (subclone 13C9-1), tested as culture supernatant or purified; Only variable domains printed (the VL as printed ends in RA); also called 13C9-1
As to B6, the dissociation constant (Kd) in assay [3] is 0.00181 nM; in assay [4], 2.78 nM. The koff in assay [3] is 6.32e-07 s⁻¹; in assay [4], 0.00117 s⁻¹. Besides, the IC50 in assay [1] came out at 1.95 µg/mL; in assay [7] it was 2.38 µg/mL. For the same molecule, the EC50 in assay [6] came to 0.49 µg/mL; in assay [2], 0.44 µg/mL.

B7: chimeric antibody 13C9-1(chi) (antibody, V domains shown)
VH: QVQLKQSGAGLVKPGASVKLSCKASGYIFTEYIIHWVKQRSGQGLEWIGWFYPGSDNIKYNEKFKDKATLTADKSSSTVYMELSRLTSEDSAVYFCARHETGYFFDYWGQGTTLTVSS
VL: DIVITQSPAIMSASPGEKVTMTCSASSSVSKMNWYQQKSGTSPKRWIYDTSKLASGVPSRFSGSGSGTSYSLTISSMEAEDAATYYCQQWSSNPLTFGSGTKLELKR
notes: Chimeric antibody of murine 13C9
In the case of B7, in assay [6], the EC50 is 1.42 µg/mL. Further, the IC50 in assay [7] worked out at 2.47 µg/mL.

B8: murine antibody 6G5 (A12) (antibody, V domains shown)
VH: QVQLKQSGAELVRPGTSVKMSCKATEYTFTNNWIAWVKQRPGHGLEWIGDIHPGGGYTNYNEKFKGKATLTADTSSSTAYMQLSSLTSEDSAIYYCAGSKTRDYDSWFAYWGQGTLVTVSA
VL: DIVITQSPAIMSASPGEKVTMTCSASSSVSKMNWYQQKSGTSPKRWIYDTSKLASGVPSRFSGSGSGTSYSLTISSMEAEDAATYYCQQWSSNPLTFGSGTKLELKR
notes: Mouse hybridoma antibody (subclone 6G5-2); Only variable domains printed; the printed VL is identical to that of 13C9; also called 6G5-2
For the molecule B8, the Kd in assay [3] was 0.111 nM; in assay [4], 1.07 nM. Moreover, the koff in assay [3] is 7.94e-05 s⁻¹; in assay [4] it was 0.000838 s⁻¹.

B9: murine antibody 18B4 (A4) (antibody, V domains shown)
VH: QVQLKQSGPELEKPGASVKISCKASGYSFTGYNMNWVKQSNGKSLEWIGNIDPYYGVTHYNQKFKGKATLTVDESSSTASMQLKSLTSEDSAIYYCARGIPFYGLDYWGQGTSVTVSS
VL: QIVLTQSPAIMSASPGEKVTMTCGASSSVSFMHWYQQKSGTSPKRWIYDTSKLASGVPARFSGSGSGTSYSLTISSMEAEDAATYYCQQWNTNPFTFGSGTKLEIKR
notes: Mouse hybridoma antibody (subclone 18B4-2); Only variable domains printed; also called 18B4-2
Consider B9, for which the Kd in assay [3] came out at 0.586 nM; in assay [4] it was 936 nM. Also, the koff in assay [3] was 0.000662 s⁻¹; in assay [4] it was 0.191 s⁻¹. The EC50 in assay [2] turned out to be 0.125 µg/mL.

B10: chimeric antibody 14A7(chi) (antibody, V domains shown)
VH: QVQLKQSGAELVRPGTSVKMSCKATEYTFTNNWIAWVKQRPGHGLEWVGDIHPGGGFTNYNEKFKVKATLTADTSSSTAYMQLRSLTSEDSAIYYCAGSKTRDYDAWFAYWGQGTLVTVSA
VL: DIVMTQAPSSLAVSVGEKVTLNCKSSQSLLYTGNQKNYLAWYQQKPGQSPKLLIYWASTRESGVPDRFTGSGSGTDFTLTISNVKAEDLAVYFCQQYYTYRTFGGGTKLEIKR
notes: also called 14A7-4(chi)
In assay [5], B10 displayed a dissociation constant Kd of 4.56 nM and a koff of 0.00173 s⁻¹. The molecule further displayed an EC50 in assay [6] of 1.32 µg/mL. In assay [7], this molecule came in with an IC50 of 5.66 µg/mL.

B11: murine antibody 8A2 (A8) (antibody, V domains shown)
VH: QVQLKQSGPGLVAPSQSLSITCTVSGFSLTGYGVNWVRQPPGKGLEWLGKIWGDGITDYNSALKSRLSISKDNSKSQVFLKMNSLQTDDTARYYCARDVMDYWGQGTSVTVSS
VL: QIVLTQSPAIMSASPGEKVTMTCSASSSISYMHWYQQKPGTSPKRWIYDTSKLASGVPARFSGSESGTSYSLTISSMEAEDAATYYCHHRSPYPTFGAGTKLELK
notes: Mouse hybridoma antibody (subclone 8A2-2); Only variable domains printed; also called 8A2-2
Consider B11, for which, in assay [3], the Kd worked out at 2.04 nM and the koff turned out to be 0.00034 s⁻¹. The IC50 in assay [1] was 5.17 µg/mL. In assay [4], this molecule showed a Kd of 4200 nM and a koff of 0.137 s⁻¹. In assay [2], this molecule yielded an EC50 of 0.336 µg/mL.

B12: murine antibody 2E5 (A10) (antibody, V domains shown)
VH: QVQLKQSGPGLVAPSQSLSITCTVSGFSLTGYGVNWVRQPPGKGLEWLGKIWGDGITDYNSALKSRLSISKDNSKSQVFLKMNSLQTEDTARYYCARDVMDYWGQGTSVTVSS
VL: DVLMTQIPLSLPVSLGDQASISCRSSQSIEQSNGNTYLEWYLQKPGQSPKVLIYKVSNRFSGVPDRFSGSGSGTDFTLKISRVESEDLGVYYCFQGSHVPYTFGGGTKLEIK
notes: Mouse hybridoma antibody (subclone 2E5-9); Only variable domains printed; also called 2E5-9
For B12, the results for the Kd in assay [3] and in assay [4] were 0.175 nM and 15 nM, respectively. In addition, the values for the koff in assay [3] and in assay [4] were 5.61e-05 s⁻¹ and 0.00376 s⁻¹, respectively.

B13: murine antibody 10A3 (A11) (antibody, V domains shown)
VH: QVQLKQSGPGLVAPSQSLSITCTVSGFSLTGYGVNWVRQPPGKGLEWLGKIWGDGITDYNSALKSRLSISKDNSKSQVFLKMNSLQTEDTARYYCARDVMDYWGQGTSVTVSS
VL: QIVLTQSPAIMSASPGEKVTMTCSASSSINYMHWFQQKPGTSPKRWIYDTSKLASGVPARFSGSESGTSYSLTISSMEAEDAATYYCHHRSPYPTFGAGTKLELKR
notes: Mouse hybridoma antibody (subclone 10A3-3); Only variable domains printed; also called 10A3-3
For B13, the Kd in assay [3] was 0.34 nM; in assay [4], 906 nM. Further, the koff was 5.15e-05 s⁻¹ in assay [3] and 0.0296 s⁻¹ in assay [4].

B14: murine antibody 7E5 (A9) (antibody, V domains shown)
VH: QVQLKQSGPGLVAPSQSLSITCTVSGFSLTGYGVNWVRQPPGKGLEWLGKIWGDGSTDYTSALKSRLSISKDNSKSQVFLKVNSLQTDDTARYYCARDVMDYWGQGTSVTVSS
VL: QIVLTQSPAIMSASPGEKVTMTCSASSSISYMHWFQQKPGTSPKRWIYDTSKLASGVPARFSGSESGTSYSLTISSMEAEDAATYYCHQRSPYPTFGAGTKLELK
notes: Mouse hybridoma antibody (subclone 7E5-2); Only variable domains printed; also called 7E5-2
In assay [3], B14 displayed a Kd of 0.498 nM and a koff of 0.000172 s⁻¹. In assay [4], this molecule gave a Kd of 3930 nM and a koff of 0.11 s⁻¹.

For the origin of these results see US20220396624A1 (HC BIOPHARMA SHANGHAI, published 2022).
